Measurements from patent publication US20220249679A1 (MITSUBISHI TANABE PHARMA, published 2022).
“And” between values parts separate entries of the source, which are not always exact repeats. Equal entries are not always repeated.

T1: Human CD138 His (human, UniProt P18827 23-254)
T1 construct: also called hCD138
T1 sequence: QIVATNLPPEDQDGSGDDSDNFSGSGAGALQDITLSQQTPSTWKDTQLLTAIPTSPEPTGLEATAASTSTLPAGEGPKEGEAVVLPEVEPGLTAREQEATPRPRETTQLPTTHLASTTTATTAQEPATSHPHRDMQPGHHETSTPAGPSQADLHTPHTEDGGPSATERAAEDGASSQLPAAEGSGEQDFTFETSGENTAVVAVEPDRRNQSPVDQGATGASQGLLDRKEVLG

T2: Mouse CD138 His (mouse, UniProt P18828 23-255)
T2 construct: also called mCD138
T2 sequence: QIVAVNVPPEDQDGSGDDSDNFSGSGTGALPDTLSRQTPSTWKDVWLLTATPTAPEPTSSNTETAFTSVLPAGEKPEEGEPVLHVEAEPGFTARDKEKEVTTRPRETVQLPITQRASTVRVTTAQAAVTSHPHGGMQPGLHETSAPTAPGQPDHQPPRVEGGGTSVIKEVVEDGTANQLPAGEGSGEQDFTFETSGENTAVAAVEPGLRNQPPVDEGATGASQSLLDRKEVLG

T3: Human syndecan-1 (CD138) on the cell surface (human, UniProt P18827 23-310)
T3 construct: Endogenous on H929, KMS-11 and RT112/84 cells or transfected into Expi293 cells; also called human CD138; hCD138
T3 sequence: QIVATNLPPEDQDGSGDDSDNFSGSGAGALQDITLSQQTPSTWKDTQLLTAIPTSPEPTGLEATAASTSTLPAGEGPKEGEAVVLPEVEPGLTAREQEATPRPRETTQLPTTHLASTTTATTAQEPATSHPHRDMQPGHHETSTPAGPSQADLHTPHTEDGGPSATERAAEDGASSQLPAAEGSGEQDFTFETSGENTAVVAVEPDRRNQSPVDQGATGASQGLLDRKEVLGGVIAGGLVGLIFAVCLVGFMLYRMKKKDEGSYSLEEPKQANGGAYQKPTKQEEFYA

T4: hCD138 peptide AGEGPKEGEAVVLP (human)
T4 construct: Portion of the linear CD138 peptide used for immunization; also the peptide in the crystal structure; also called syndecan-1 peptide
T4 peptide: AGEGPKEGEAVVLP

T5: Human CD138-Fc protein (human, UniProt P18827 23-254)
T5 construct: also called hCD138-Fc
T5 sequence: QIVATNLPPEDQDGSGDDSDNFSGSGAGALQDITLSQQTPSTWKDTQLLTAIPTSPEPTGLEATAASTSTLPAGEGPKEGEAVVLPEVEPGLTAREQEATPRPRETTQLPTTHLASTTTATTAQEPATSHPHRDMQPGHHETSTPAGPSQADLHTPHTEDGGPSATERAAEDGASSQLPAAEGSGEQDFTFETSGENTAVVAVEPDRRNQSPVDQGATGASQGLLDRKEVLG

T6: hCD138 (ELISA of Table 29) (human, UniProt P18827 23-254, limits assumed)
T6 construct: also called human CD138
T6 sequence: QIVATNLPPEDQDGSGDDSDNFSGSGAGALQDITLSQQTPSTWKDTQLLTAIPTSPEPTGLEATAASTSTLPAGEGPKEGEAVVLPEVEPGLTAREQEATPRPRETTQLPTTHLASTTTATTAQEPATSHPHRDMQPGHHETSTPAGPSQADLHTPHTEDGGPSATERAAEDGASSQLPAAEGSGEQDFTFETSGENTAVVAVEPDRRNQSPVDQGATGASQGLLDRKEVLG

B1: F12P7G11 (antibody, V domains shown)
VH: QVQLQQSGAELARPGASVKLSCKASGYTFSSHWMQWVKQRPGQGLEWIGAIYPGDGDTRFTQKFKGKATLTADKSSNTAYMQLSSLASEDSAVYYCARGIYYDRSRAMDYWGQGTSVTVSS
VL: QIVLSQSPAILSASPGEKVTMTCRASSSVNYMHWYQQKPGSSPKHWIYATSYLASGVPARFSGSGSGTSYSLTISRVEAEDAATYYCQQWSSDPLTFGAGTKLELKR
notes: Murine IgG purified from hybridoma supernatant
B2: F6 ckf-rep (antibody, V domains shown)
VH: QVQLVQSGAEVVKPGASVKLSCKASGYTFTSYYLYWVKKAPGQGLDWIGEIYPRSGGTNINEKFLSRVTLTADTSTSTAYLELSSLTSEDTAVYYCTRSLLYWGQGTTLTVSS
VL: DVVMTQSPLSLSVTLGQPASISCKSSQSLLASDGKTYLNWLQQRPGQSPRRLIYLVSKLDSGVPNRFSGSGSGTDFTLQISRVEAEDVGLYYCWQGAHFPFTFGSGTKLEIKR
notes: Humanized F12P16F6 expressed as whole antibody with human constant regions (kappa light chain)
B3: F6 cks-rep (hF6) (antibody, human IgG1, kappa, V domains shown)
VH: QVQLVQSGAEVVKPGASVKLSCKASGYTFTSYYLYWVKKAPGQGLDWIGEIYPRSGGTNINEKFLSRVTLTADTSTSTAYLELSSLTSEDTAVYYCTRSLLYWGQGTTLTVSS
VL: DVVMTQTPLSLSVTPGQPASISCKSSQSLLASDGKTYLNWLLQRPGQSPKRLIYLVSKLDSGVPNRFSGSGSGTDFTLQISRVEAEDVGLYYCWQGAHFPFTFGSGTKLEIKR
notes: Humanized IgG1/kappa antibody; also called hF6 (no Fynomer)
B4: F6 f2kf-rep (antibody, V domains shown)
VH: QVQLQQSGAEVVKPGASVKLSCKASGYTFTSYYLYWVKKAPGQGLDWIGEIYPRSGGTNINEKFLSRVTITADESTSTVYMQLSSLTSEDSAVYYCTRSLLYWGQGTTLTVSS
VL: DVVMTQSPLSLSVTLGQPASISCKSSQSLLASDGKTYLNWLQQRPGQSPRRLIYLVSKLDSGVPNRFSGSGSGTDFTLQISRVEAEDVGLYYCWQGAHFPFTFGSGTKLEIKR
notes: as for B2
B5: F6 cka-rep (antibody, V domains shown)
VH: QVQLVQSGAEVVKPGASVKLSCKASGYTFTSYYLYWVKKAPGQGLDWIGEIYPRSGGTNINEKFLSRVTLTADTSTSTAYLELSSLTSEDTAVYYCTRSLLYWGQGTTLTVSS
VL: DVVMTQTPLSLSVTPGQPASISCKSSQSLLASDGKTYLNWLLQRPGQSPKRLIYLVSKLDSGVPNRFSGSGSGTDFTLQISRVEAEDVGLYYCMQGAHFPFTFGGGTKVEIKR
notes: as for B2
B6: F6 f1ka-rep (antibody, V domains shown)
VH: QVQLQQSGAEVVKPGASVKLSCKASGYTFTSYYLYWVKKAPGQGLDWIGEIYPRSGGTNINEKFLSRVTLTADTSTSTAYMDLSSLTSEDTAVYYCTRSLLYWGQGTTLTVSS
VL: DVVMTQTPLSLSVTPGQPASISCKSSQSLLASDGKTYLNWLLQRPGQSPKRLIYLVSKLDSGVPNRFSGSGSGTDFTLQISRVEAEDVGLYYCMQGAHFPFTFGGGTKVEIKR
notes: as for B2

Experiments:
[1] = target: T1, Human CD138 His; experiment: SPR, summary table
Description: (§1) Murine IgGs were purified from the hybridoma supernatants and the IgGs were subject to SPR (surface plasmon resonance) for kinetic binding measurements. Human or mouse CD138 His was immobilized on a GLM chip at […] on a BioRad Proteon. […] KDs were measured using bivalent analyte fit.

[2] = target: T1, Human CD138 His; experiment: SPR (BioRad Proteon), CD138 His immobilized, bivalent analyte fit
Description: as §1

[3] = target: T2, Mouse CD138 His; experiment: SPR, mouse CD138 His immobilized
Description: as §1

[4] = target: T3, Human syndecan-1 (CD138) on the cell …; experiment: FACS on RT-112 cells, four parameter fit
Description: (§2) Analysis of cell-surface binding to human CD138 was performed on 9 representative humanized anti-CD138 antibodies by FACS (FIG. 7). […] Two cell lines expressing moderate levels of CD138 were used to test binding; multiple myeloma cell line KMS-11 and bladder cancer line RT112/84. […] EC50s were calculated using four parameter fit curves (Table 20). The constructs were also tested against ARH-77 cells, which are CD138 negative lymphoblasts.

[5] = target: T3, Human syndecan-1 (CD138) on the cell …; experiment: summary table; repeats the EC50 (nM) of Table 20, unit not given
Description: as §2

[6] = target: T4, hCD138 peptide AGEGPKEGEAVVLP; experiment: ELISA, plate-coated hCD138 peptide
Description: (§3) A CD138 binding ELISA was performed with 9 representative humanized antibodies to determine binding to portion of the linear CD138 peptide used for immunization (FIG. 7). […] Coated plates were incubated with various dilutions of each of the 9 representative antibodies overnight and binding was detected with a goat anti-human IgG (H+L)-HRP. EC50s were determined using four parameter fit curves (Table 21). An ELISA was also performed to detect binding to plate-coated human CD138-Fc protein (Table 21).

[7] = target: T5, Human CD138-Fc protein; experiment: ELISA, plate-coated human CD138-Fc
Description: as §3

[8] = target: T5, Human CD138-Fc protein; experiment: summary table; repeats the EC50 (nM) of Table 21, unit not given
Description: as §3

[9] = target: T3, Human syndecan-1 (CD138) on the cell …; experiment: FACS on KMS-11 cells, four parameter fit
Description: as §2

[10] = target: T6, hCD138 (ELISA of Table 29); experiment: hCD138 ELISA

Binder	Kd [1] [nM]	Kd [2]	koff [2] [s⁻¹]	kon [2] [M⁻¹ s⁻¹]	binding result [3]	EC50 [4] [nM]	FACS binding (KMS11) [5]	EC50 [6] [nM]	EC50 [7] [nM]	ELISA CD138 Fc binding [8]	EC50 [9] [nM]	EC50 [10] [nM]
B1	9	8.66 nM and 8.6 nM	0.033	3.81e+06	no binding (tested: 167 nM)							
B2						2.09	1.64	0.981	0.535	0.535	1.64	
B3						2.2	1.2	0.33	0.197	0.197	1.2	0.56
B4						2.46	1.81	0.726	0.405	0.405	1.81	
B5						2.44	1.3	1.65	0.855	0.855	1.3	
B6						1.39	0.83	0.744	0.433	0.433	0.83	
